Experimental data: publication PMC5852006, “Microvillar and ciliary defects in zebrafish lacking an actin-binding bioactive peptide amidating enzyme” (Scientific Reports, 2018)

Target: Filamentous actin, pre-formed actin filaments derived from rabbit skeletal muscle (rabbit, UniProt P68135 1-377)
Experiment: co-sedimentation; F-actin spin-down; constant 0.5 μM F-actin with varying concentrations of PAM-CD; PAM-CD in supernatants and pellets by electrophoretic analysis; Scatchard analysis of three experiments
Conditions: both partners purified

Kd: 600 nM
B1: Peptidylglycine α-amidating monooxygenase cytosolic C-terminal domain, recombinant rat PAM(898–976) (domain or fragment)
chain: FGDHDRKLESSSGRVLGRFRGKGSGGLNLGNFFASRKGYSRKGFDRVSTEGSDQEKDEDDGTESEEEYSAPLPKPAPSS
notes: Peptidylglycine alpha-amidating monooxygenase (PAM), rat, cytosolic C-terminal domain, residues 898-976; no tag is mentioned; also called PAM-CD; rat PAM-CD; source: E. coli BL21(DE3), pET-11CD vector, purified
